B1: TPR t1 (parent)
chain: GACCAAUCUGCCCUCAGAGCUCGAGAACAUCUUCGGAUGCAGAGGAGGCAGGCUUCGGUGGCGCGAUAGCGCCAACGUCCUCAACCUCCAAUGCAUCCCACCACAUGAUGAUGCCUGAAGAGCCUUGGUUUUUUG

Variants of: B1
Test: polymerase ribozyme fitness, log enrichment relative to wild type (log ratio); higher = more active; in vitro selection for triplet polymerase activity
Outline: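 Mutant libraries of both subunits of a heterodimeric triplet polymerase ribozyme were PCR-built, transcribed, and selected once in triplicate, with frozen incubation at −7 °C and capture of gel-excised extended constructs on streptavidin beads before RT-PCR. Illumina sequencing of input and output libraries was filtered to genotypes with ≥10 input reads and ≥1 read per output. Fitness is the logarithm of genotype enrichment over wild-type enrichment, using inverse-variance-weighted replicate averages. The logarithm is base 2.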

Row | Variant | polymerase ribozyme fitness (log ratio)
1 | U32A C73A C97U | -6.06
2 | C34A A50C | -3.5
3 | U30C C97U | -3.64
4 | C28U C79U | -1.61
5 | A29G U59G | -1.48
6 | U32G C62G G120U | -8.14
7 | U32A G120C | -3.07
8 | C34A C62U | -2.79
9 | A29G G61A G93A C102G G117C | -7.25
10 | C31A C40U A50U G60A C101A U106A C115U A119G | -6.82
11 | U33A C89A | -6.86
12 | A29U C40A G52C G110U | -3.01
13 | A29C G57U G120U | -2.96
14 | A29U A50C C98U | -3.99
15 | A29C G36U A43U G44A G69U A121C | -2.34
16 | U32C A84U | -0.174
17 | U33A C72A C76A | -6.92
18 | U30G A43U A91U G113U | -6.55
19 | C34A A75G | -2.34
20 | C28U G45C C76A C89G G120C | -5.73
21 | A29G C70G G120A | -2.72
22 | A29G C53G A95G | -2.04
23 | U33A C56G G69U | -2.45
24 | C31U A46C G47U C98A G120C | -7.6

Row | Variant | polymerase ribozyme fitness (log ratio)
25 | C28U C72A | -2.49
26 | C28U C49A G113C | -3.97
27 | A29U A75U A83G U112G U133C | -2.19
28 | C31U | -4.29
29 | C31A | -5.84
30 | C31G | -7.22
31 | A29U C123A | -1.43
32 | C31U C70U C72U | -5.69
33 | C31G C98G G110U | -6.25
34 | A29U G71U | -1.99
35 | A29U U59G G120C | -1.14
36 | U32C C62U C73U C85U C98U | -4.16
37 | A29U C72U C98U A111C | -3.77
38 | C34A C94U A121G U125A U129A | -3
39 | C28U C56U C101U G120U | -2.65
40 | A29U A46G U125A | -2.44
41 | C28U G39A G45A G120A | -2.28
42 | A29U G58A C115U | -2.3
43 | A29U C89U A119U | -3.93
44 | C28U G45C | -3.26
45 | C28U G45A | -2.04
46 | U33A A46C G69U U78G | -2.03
47 | A29G A74U U109A C114U | -4.26
48 | U33A G69U | -0.74

Row | Variant | polymerase ribozyme fitness (log ratio)
49 | A29C A41C G61U | -3.33
50 | C34A A37U A46U A74U G113C | -6.79
51 | C31U A43C | -6.22
52 | C34A A46U | -3.37
53 | A29U C115A | -1.59
54 | C34A C101U C104U U133A | -1.95
55 | U30C G48U C73A C82A | -3.73
56 | U33A U129A | -6.13
57 | A29G U55G G63A U131C U133G | -2.37
58 | A29G G44U | -2.04
59 | C34A G58C | -2.18
60 | U32C C73U C85U C98U | -4.19
61 | U30G C49G G113C | -5.95
62 | A29U C49G C101G C124G | -3.93
63 | C28U A119G | -1.04
64 | C28U C86A | -2.8
65 | U33G G47U C72U G120A | -6.26
66 | C28U G60A | -2.05
67 | C28U G60U | -1.24
68 | U33A C102G U112A | -6.38
69 | C31A C115U | -7.47
70 | A29G C101A | -3.99
71 | A29G G48U G93C G110U C123U | -4.77
72 | U32A A43G C88U G93A C114G | -5.05

Row | Variant | polymerase ribozyme fitness (log ratio)
73 | A29U A83C C124A | -0.511
74 | U32A G57U | -4.02
75 | C34A C124A | -1.1
76 | A29C A84G U87A C104U C124G | -1.28
77 | A29G G120U U132A | -1.63
78 | A29U A46G C88U C97G | -4.71
79 | A29U U112G U133C | -1.1
80 | U33A C64U U87A | -4.27
81 | A29G C123A | -0.494
82 | U32G A41G C70U C89G C114U | -5.66
83 | U32A C40G C56A A84U | -6.15
84 | A29U G52A G113A | -2.09
85 | C31A C72A C104G | -6.29
86 | A29U C72U C104U | -1.81
87 | C34A G48A C73U C101A | -4.83
88 | U32C C40U C86G | -2.2
89 | C34A G57C | -2.62
90 | A29C C62A C124G U129C | -3.09
91 | U32C A50G C79U C88U C114A G122A | -2.69
92 | U32C C53A C101A G120A | -0.18
93 | C34A C101U | -2.53
94 | U32C C64U | 0.123
95 | U32C A43U C123A | -1.31
96 | C34A G44A G48A U59A G61U C72U A121C C123G | -6

Row | Variant | polymerase ribozyme fitness (log ratio)
97 | U33C A46G C64G C86A C115G | -5.34
98 | U33A G117U | -5.29
99 | U32C G52A U78C C101A | -1.13
100 | A29U G63U | -2.58
101 | U32C U55G C102A | -2.56
102 | C28U C70U C88U | -3.74
103 | A29G A83C | -1.32
104 | U33A C82A | -5.5
105 | C28U A105U U112C | -4.9
106 | A29G G60C U131A | -1.85
107 | A29C C53U C80U A90G | -3.07
108 | C28U C62A C124G U133G | -2.2
109 | U33A G44A G51A G63A A66G A74U A111U | -7.25
110 | A29G U32C A50U | -1.45
111 | C31G U33A C64A G120C | -6.19
112 | A29U G48A U92C C101U C114A | -5.72
113 | C31G G44U G52U C62U C85U C115U G117A | -7.35
114 | A29U G47U C62U | -4.34
115 | C28U G52A C73U | -2.19
116 | A29G A37C A74G A111C | -1.06
117 | U33A G48U U55C U109C A121G C124A G127C | -5.45
118 | A29U G61A C82G U116C U125A | -3.67
119 | C31U C40U G45A | -6.8
120 | A29G A41G | -1.22

Row | Variant | polymerase ribozyme fitness (log ratio)
121 | A29G A41U | -1.6
122 | A29U C62G U106A | -2.35
123 | C28U U78C C101U | -2.49
124 | U32C C104U U112G | 0.174
125 | A29G G61A C89A | -2.41
126 | C28U G61C U106A G113C | -5.31
127 | U32G A43G C73U A105U G120C | -7.51
128 | U33G G65U C72G A111C A118U | -6.82
129 | U32C G69C G128C | -4.73
130 | U32C G113A U126G U133C | -4.07
131 | U32A G39U G45C C64G C114A | -6.51
132 | U32C G120C | 1.83
133 | A29G A46U G52U G57U U87G C115G | -4.9
134 | C31U C62U | -5.22
135 | C31A C40G A46G G63A A111U | -6.15
136 | U30C G42U G60A | -5.14
137 | U33A G127C | -4.76
138 | C31U G48A C73U U106G | -3.4
139 | A29U C56G A66U | -3
140 | C34A C70U C79U | -4.29
141 | U32C A90G C97A U130G | -5.05
142 | U33G U87A | -6.14
143 | U33C U131A | -4.45
144 | U33A C56G | -4.38

Row | Variant | polymerase ribozyme fitness (log ratio)
145 | C31U U59C G120U G127C | -5.99
146 | U30C G48C C64U U81A U87A C124A | -4.9
147 | C28U G110U | -1.44
148 | A29U C124U | -0.47
149 | U32C G48U G69A | -3.8
150 | A29G G45U C64U | -2.76
151 | U30C C88U | -2.37
152 | C31A A95U | -5.15
153 | A29U G47C C73G U109A | -0.853
154 | C28U G48U U78A | -3.25
155 | A29G A41U A46C G63C | -5.41
156 | U32C C80U A83U C123G U130G | -1.77
157 | U30C G47U C53U U54A U133A | -4.89
158 | C31G C56A G60U U109A | -7.12
159 | C28U U32C G71A | -2.59
160 | U30G C102G U112G | -7.15
161 | U32C U116C | -1.17
162 | C34A A105U A121U | -1.99
163 | C31G C85U C123U | -5.56
164 | C28U G57U | -1.3
165 | A29U C98A U109G | -4.46
166 | A29U C94A A111U | -0.272
167 | C34A C97G U125A | -3.42

Reference: the RNAGym collection of RNA variant scans (doi:10.1073/pnas.2313332121)
